This assay has as its target T1, sLgBiT-Lc-GPR25 (without coexpression of TPST1 and TPST2) (Latimeria chalumnae (coelacanth), UniProt H3AQL3 1-365).
T1 sequence (looked up): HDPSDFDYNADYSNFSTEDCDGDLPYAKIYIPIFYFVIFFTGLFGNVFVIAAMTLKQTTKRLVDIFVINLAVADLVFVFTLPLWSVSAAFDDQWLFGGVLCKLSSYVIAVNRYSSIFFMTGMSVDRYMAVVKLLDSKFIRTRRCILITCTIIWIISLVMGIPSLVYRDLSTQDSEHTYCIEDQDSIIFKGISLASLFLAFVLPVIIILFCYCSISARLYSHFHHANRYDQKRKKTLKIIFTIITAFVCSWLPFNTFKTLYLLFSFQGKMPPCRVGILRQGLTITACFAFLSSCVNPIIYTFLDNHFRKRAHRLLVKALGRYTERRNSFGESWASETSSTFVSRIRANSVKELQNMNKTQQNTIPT
Briefly: split reporter.

In general, IC50 refers to the concentration needed to halve the response being measured.

B1: 6×His-Hs-CXCL17 (ligand, human, UniProt Q6UXB2 22-119, looked up)
chain: SSLNPGVARGHRDRGQASRRWLQEGGQECECKDWFLRAPRRKFMTVSGLPKKQCPCDHFKGNVKKTRHQRHHRKPNKHSRACQQFLKQCQLRSFALPL
B1: the IC50 was approximately 400 nM.

The values are drawn from paper doi:10.1101/2025.09.16.676457 (bioRxiv, 2025).
